Data from patent publication US20230125550A1 (ARCELLX, published 2023).
Residue numbers refer to the chain shown, from its start.

B1: SEQ ID NO: 513 (designed binder)
chain: MGSWHVFKTELADIKFYLEALGGSEAELAMFELWIAEFEHELQDYKGKGNPEVEALRKEAAAIRDELQAYRHN
notes: D domain, on phage
B2: SEQ ID NO: 492 (designed binder)
chain: MGSWVLFKEELAYIKFELEALGGSEAELALFENVIAIFESNLQNYKGKGNPEVEALRKEAAAIRDELQAYRHN
notes: D domain, on phage
B3: SEQ ID NO: 494 (designed binder)
chain: MGSWDHFKNDLAWIKKHLEALGGSEAELAEFEAVIAYFELYLQGYKGKGNPEVEALRKEAAAIRDELQAYRHN
notes: D domain, on phage
B4: SEQ ID NO: 489 (designed binder)
chain: MGSWYEFKFDLAEIKEQLEALGGSEAELALFEDDIAFFEYDLQNYKGKGNPEVEALRKEAAAIRDELQAYRHN
notes: D domain, on phage
B5: SEQ ID NO: 490 (designed binder)
chain: B4 chain with E6D, F9Y, E16M, Q17D, L30Q, D33F, Y40E, D41E, N44D
notes: D domain, on phage
B6: SEQ ID NO: 499 (designed binder)
chain: B4 chain with E6Q, F9H, E13D, E16Y, Q17G, L30W, F37D, Y40L, N44Y
notes: D domain, on phage
B7: SEQ ID NO: 500 (designed binder)
chain: MGSWYVFKDDLADIKYMLEALGGSEAELAWFEWEIANFEFDLQYYKGKGNPEVEALRKEAAAIRDELQAYRHN
notes: D domain, on phage
B8: SEQ ID NO: 520 (designed binder)
chain: MGSWHWFKEELAEIKEDLVALGGSEAELAWFEYDIAMFELSLQNYKGKGNPEVEALRKEAAAIRDELQAYRHN
notes: D domain, on phage
B9: SEQ ID NO: 521 (designed binder)
chain: B8 chain with H5N, W6D, E13W, E16F, V19E, Y33E, L40Q, S41Q, N44A
notes: D domain, on phage
B10: SEQ ID NO: 493 (designed binder)
chain: MGSWQDFKEDLAWIKYELEALGGSEAELAFFEYDIAIFENNLQHYKGKGNPEVEALRKEAAAIRDELQAYRHN
notes: D domain, on phage
B11: SEQ ID NO: 481 (designed binder)
chain: MGSWNEFKDDLAMIKMTLEALGGSEAELAWFEHDIAEFEDDLQWYKGKGNPEVEALRKEAAAIRDELQAYRHN
notes: D domain, on phage
B12: SEQ ID NO: 482 (designed binder)
chain: B11 chain with N5T, E6F, M13E, M16W, T17M, H33S, E37Y, D41E
notes: D domain, on phage
B13: SEQ ID NO: 485 (designed binder)
chain: B11 chain with N5Q, E6Y, M13E, T17V, H33A, E37M, W44I
notes: D domain, on phage
B14: SEQ ID NO: 480 (designed binder)
chain: B11 chain with N5E, E6W, D9S, M13S, M16W, T17E, D40E
notes: D domain, on phage
B15: SEQ ID NO: 484 (designed binder)
chain: B11 chain with N5S, E6M, M13E, M16A, T17S, H33D, E37W, W44H
notes: D domain, on phage
B16: SEQ ID NO: 483 (designed binder)
chain: B11 chain with N5S, E6D, M13E, T17I, W30Y, H33N, E37W, W44E
notes: D domain, on phage
B17: SEQ ID NO: 515 (designed binder)
chain: MGSWGWFKHELAFIKADLEALGGSEAELAWFEEEIAEFEYELQFYKGKGNPEVEALRKEAAAIRDELQAYRHN
notes: D domain, on phage
B18: SEQ ID NO: 505 (designed binder)
chain: MGSWFMFKQELAWIKEDLEALGGSEAELADFEWDIAEFEWDLQYYKGKGNPEVEALRKEAAAIRDELQAYRHN
notes: D domain, on phage
B19: SEQ ID NO: 506 (designed binder)
chain: B18 chain with F5Q, M6I, Q9G, W13Y, E16Q, D17Y, D30F, W33F, W40E
notes: D domain, on phage
B20: SEQ ID NO: 525 (designed binder)
chain: MGSWYQFKDDLAHIKHLLEALGGSEAELAVFEYIIADFESFLQIYKGKGNPEVEALRKEAAAIRDELQAYRHN
notes: D domain, on phage
B21: SEQ ID NO: 497 (designed binder)
chain: B7 chain with V6Y, D10E, Y16W, M17D, W33M, E34L, N37Q, F40L, Y44W
notes: D domain, on phage
B22: SEQ ID NO: 498 (designed binder)
chain: MGSWMYFKDTLADIKWYLEALGGSEAELAFFEDWIAEFEDDLQVYKGKGNPEVEALRKEAAAIRDELQAYRHN
notes: D domain, on phage
B23: SEQ ID NO: 509 (designed binder)
chain: B18 chain with F5Y, M6Q, Q9T, E16D, D30W, D34V, E37D, W40D, Y44F
notes: D domain, on phage
B24: SEQ ID NO: 504 (designed binder)
chain: MGSWFMFKEELADIKDWLEALGGSEAELASFESYIAWFEQDLQWYKGKGNPEVEALRKEAAAIRDELQAYRHN
notes: D domain, on phage
B25: SEQ ID NO: 495 (designed binder)
chain: B7 chain with V6D, D9E, Y16W, W30E, W33N, E34V, N37Y, F40N, Y44E
notes: D domain, on phage
B26: SEQ ID NO: 496 (designed binder)
chain: B24 chain with F5Y, D16W, W17Y, S30W, S33D, Y34D, W37G, Q40W, W44A
notes: D domain, on phage
B27: SEQ ID NO: 510 (designed binder)
chain: MGSWFEFKDYLADIKWDLEALGGSEAELAIFEHDIAYFEHNLQQYKGKGNPEVEALRKEAAAIRDELQAYRHN
notes: D domain, on phage
B28: SEQ ID NO: 511 (designed binder)
chain: B27 chain with F5V, E6R, Y10F, W16M, I30D, H33Y, D34H, Y37E, Q44E
notes: D domain, on phage
B29: SEQ ID NO: 501 (designed binder)
chain: MGSWNFFKYDLADIMAYLEALGGSEAELAFFEDEIANFEHDLQKYKGKGNPEVEALRKEAAAIRDELQAYRHN
notes: D domain, on phage
B30: SEQ ID NO: 522 (designed binder)
chain: MGSWWDFKDWLAEIKHDLEALGGSEAELALFESEIADFEFGLQWYKGKGNPEVEALRKEAAAIRDELQAYRHN
notes: D domain, on phage
B31: SEQ ID NO: 507 (designed binder)
chain: MGSWDFFKEELAEIKHYLEALGGSEAELAFFEFWIADFEQDLQEYKGKGNPEVEALRKEAAAIRDELQAYRHN
notes: D domain, on phage
B32: SEQ ID NO: 508 (designed binder)
chain: B31 chain with D5F, F6N, E13V, H16F, Y17Q, F33W, W34V, Q40D
notes: D domain, on phage
B33: SEQ ID NO: 491 (designed binder)
chain: MGSWYIFKEDLAEIKEELEALGGSEAELAYFEEEIALFEMELQWYKGKGNPEVEALRKEAAAIRDELQAYRHN
notes: D domain, on phage
B34: SEQ ID NO: 502 (designed binder)
chain: MGSWHWFKIVLADIKDGLEALGGSEAELAYFETTIADFEMDLQHYKGKGNPEVEALRKEAAAIRDELQAYRHN
notes: D domain, on phage
B35: SEQ ID NO: 503 (designed binder)
chain: B34 chain with Q43H
notes: D domain, on phage
B36: SEQ ID NO: 514 (designed binder)
chain: MGSWIWFKDWLADIKDLLEALGGSEAELAEFEYDIALFEDQLQAYKGKGNPEVEALRKEAAAIRDELQAYRHN
notes: D domain, on phage
B37: SEQ ID NO: 512 (designed binder)
chain: MGSWWLFKEQLALIKYNLEALGGSEAELADFESWIAEFEHQLQEYKGKGNPEVEALRKEAAAIRDELQAYRHN
notes: D domain, on phage
B38: SEQ ID NO: 523 (designed binder)
chain: MGSWDEFKEDLAHIKTDLEALGGSEAELALFEDEIADFEMYLQHYKGKGNPEVEALRKEAAAIRDELQAYRHN
notes: D domain, on phage
B39: SEQ ID NO: 478 (designed binder)
chain: MGSWSWFKEDLASIKAVLEALGGSEAELAFFESDIAEFEQELQYYKGKGNPEVEALRKEAAAIRDELQAYRHN
notes: D domain, on phage
B40: SEQ ID NO: 479 (designed binder)
chain: B11 chain with N5W, D9E, M13E, M16W, T17F, E37K, D40F, D41E, W44Y
notes: D domain, on phage
B41: SEQ ID NO: 486 (designed binder)
chain: MGSWSFFKDDLAEIKYFLEALGGSEAELAMFEQTIAEFEYDLQDYKGKGNPEVEALRKEAAAIRDELQAYRHN
notes: D domain, on phage
B42: SEQ ID NO: 488 (designed binder)
chain: B41 chain with S5A, F6W, D9E, Y16V, M30E, Q33V, T34S, E37D, D41E
notes: D domain, on phage
B43: SEQ ID NO: 487 (designed binder)
chain: B41 chain with S5M, F6E, D9E, D10E, F17I, M30W, T34S, E37D
notes: D domain, on phage
B44: SEQ ID NO: 519 (designed binder)
chain: MGSWLYFKEYLADIKSDLEALGGSEAELAWFEYEIADFEEQLQYYKGKGNPEVEALRKEAAAIRDELQAYRHN
notes: D domain, on phage
B45: SEQ ID NO: 516 (designed binder)
chain: MGSWTWFKDNLAWIKEDLEALGGSEAELAWFELEIASFETALQDYKGKGNPEVEALRKEAAAIRDELQAYRHN
notes: D domain, on phage
B46: SEQ ID NO: 517 (designed binder)
chain: B45 chain with W6Y, D9N, N10D, W13G, W30Q, L33F, S37E, T40W, A41L
notes: D domain, on phage
B47: SEQ ID NO: 518 (designed binder)
chain: B17 chain with G5T, H9W, E10D, F13D, A16G, W30F, Y40W, E41R, F44D
notes: D domain, on phage
B48: SEQ ID NO: 524 (designed binder)
chain: MGSWDFFKYDLANINEWLEALGGSEAELADFEYGIADFELWLQDYKGKGNPEVEALRKEAAAIRDELQAYRHN
notes: D domain, on phage

Target: T1, recombinant human CD123-Fc (human, UniProt P26951 19-305)
T1 construct: not shown: Fc part of CD123-Fc
T1 sequence: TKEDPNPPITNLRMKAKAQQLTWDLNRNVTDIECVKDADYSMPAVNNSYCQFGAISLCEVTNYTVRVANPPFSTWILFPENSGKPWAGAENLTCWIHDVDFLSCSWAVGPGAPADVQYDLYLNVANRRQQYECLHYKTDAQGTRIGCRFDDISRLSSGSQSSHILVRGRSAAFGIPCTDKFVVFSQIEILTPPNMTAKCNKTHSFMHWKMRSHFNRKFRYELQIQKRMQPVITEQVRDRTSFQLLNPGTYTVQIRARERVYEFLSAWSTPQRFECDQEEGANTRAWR
Test: phage ELISA, captured CD123-Fc
Summary of the method: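 Phage from BCMA panning colonies were rescued with VCSM13 helper phage and diluted 5× in blocking buffer. Plates coated with anti-human IgG1-Fc captured 5 nM target-Fc or IgG1-Fc, and binding was detected with HRP anti-M13. Ratio = A450 target/A450 IgG1-Fc, averaged over the clone's wells.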

Binder	ELISA_avg
B1	5.4 ratio A450 target/IgG1-Fc
B2	3.5 ratio A450 target/IgG1-Fc
B3	3.3 ratio A450 target/IgG1-Fc
B4	4.6 ratio A450 target/IgG1-Fc
B5	3.2 ratio A450 target/IgG1-Fc
B6	4.7 ratio A450 target/IgG1-Fc
B7	3.8 ratio A450 target/IgG1-Fc
B8	3.1 ratio A450 target/IgG1-Fc
B9	3.8 ratio A450 target/IgG1-Fc
B10	3.2 ratio A450 target/IgG1-Fc
B11	3.5 ratio A450 target/IgG1-Fc
B12	3.3 ratio A450 target/IgG1-Fc
B13	3.6 ratio A450 target/IgG1-Fc
B14	5.7 ratio A450 target/IgG1-Fc
B15	5.2 ratio A450 target/IgG1-Fc
B16	4.7 ratio A450 target/IgG1-Fc
B17	3.3 ratio A450 target/IgG1-Fc
B18	7.2 ratio A450 target/IgG1-Fc
B19	4.7 ratio A450 target/IgG1-Fc
B20	4 ratio A450 target/IgG1-Fc
B21	4 ratio A450 target/IgG1-Fc
B22	3.1 ratio A450 target/IgG1-Fc
B23	6.6 ratio A450 target/IgG1-Fc
B24	5.7 ratio A450 target/IgG1-Fc

Binder	ELISA_avg
B25	8 ratio A450 target/IgG1-Fc
B26	7 ratio A450 target/IgG1-Fc
B27	3.8 ratio A450 target/IgG1-Fc
B28	5.8 ratio A450 target/IgG1-Fc
B29	4.4 ratio A450 target/IgG1-Fc
B30	4.2 ratio A450 target/IgG1-Fc
B31	3.7 ratio A450 target/IgG1-Fc
B32	6.1 ratio A450 target/IgG1-Fc
B33	11.1 ratio A450 target/IgG1-Fc
B34	4.3 ratio A450 target/IgG1-Fc
B35	3.5 ratio A450 target/IgG1-Fc
B36	7.3 ratio A450 target/IgG1-Fc
B37	4.1 ratio A450 target/IgG1-Fc
B38	6.3 ratio A450 target/IgG1-Fc
B39	6.9 ratio A450 target/IgG1-Fc
B40	5.1 ratio A450 target/IgG1-Fc
B41	10.1 ratio A450 target/IgG1-Fc
B42	3.5 ratio A450 target/IgG1-Fc
B43	5 ratio A450 target/IgG1-Fc
B44	3.7 ratio A450 target/IgG1-Fc
B45	6.9 ratio A450 target/IgG1-Fc
B46	3.6 ratio A450 target/IgG1-Fc
B47	5.9 ratio A450 target/IgG1-Fc
B48	5.5 ratio A450 target/IgG1-Fc
